Biological target: T1, hIL2Rg ECD antigen (human, UniProt P31785 23-262)
T1 construct: Antigen of biopanning and PE-ELISA; also called extracellular domain of human IL2Rg; CD132 ECD
T1 sequence: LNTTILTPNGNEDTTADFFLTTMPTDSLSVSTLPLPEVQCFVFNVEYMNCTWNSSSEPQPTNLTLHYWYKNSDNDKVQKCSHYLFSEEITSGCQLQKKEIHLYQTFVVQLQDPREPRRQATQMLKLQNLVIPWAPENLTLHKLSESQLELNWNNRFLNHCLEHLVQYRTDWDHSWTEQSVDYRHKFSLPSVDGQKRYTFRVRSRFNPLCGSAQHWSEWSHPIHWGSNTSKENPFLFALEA
Assay: periplasmic extract ELISA (PE-ELISA) of phage clones after biopanning

B1: hIL2Rg_VHH-15 (VHH)
VHH: QVQLQESGGGLVQPGGSLRLSCAASGFTFSSAHMSWVRQAPGKGREWIASIYSGGGTFYADSVKGRFTISRDNAKNTLYLQLNSLKAEDTAMYYCATNRLHYYSDDDSLRGQGTQVTVSS
notes: Periplasmic extract of a phage clone, as in the PE-ELISA; not shown: HA/His tag of the pMECS phagemid
binding result: binds
